Where two headings read alike, the source gives them in different places.
Tests used:
Assay in all cases: cell-based or functional assay
[1] = molecular target: T1, SARS-CoV-2 Omicron BA.1 Spike on virus particles (SARS-CoV-2)
[2] = molecular target: T2, SARS-CoV-2 Omicron BA.2 Spike on pseudovirus (SARS-CoV-2)
[3] = molecular target: T3, SARS-CoV-2 Omicron BA.2.12.1 Spike on pseudovirus (SARS-CoV-2)
[4] = molecular target: T4, SARS-CoV-2 Delta Spike on virus particles (SARS-CoV-2)
[5] = molecular target: T5, SARS-CoV-2 Omicron BA.4/5 Spike on pseudovirus (SARS-CoV-2)
[6] = molecular target: SARS-CoV-2 D614G Spike on pseudovirus (SARS-CoV-2, UniProt P0DTC2 14-1273)
[7] = molecular target: T2, SARS-CoV-2 Omicron BA.2 Spike on …; remark: listed apart in the source
[8] = molecular target: T4, SARS-CoV-2 Delta Spike on virus …; remark: listed apart in the source
[9] = molecular target: T5, SARS-CoV-2 Omicron BA.4/5 Spike on …; remark: listed apart in the source
[10] = molecular target: SARS-CoV-2 Omicron BA.4/5+K444T Spike on pseudovirus (SARS-CoV-2)
[11] = molecular target: T5, SARS-CoV-2 Omicron BA.4/5 Spike on …; remark: listed apart in the source
[12] = molecular target: T1, SARS-CoV-2 Omicron BA.1 Spike on virus …; remark: listed apart in the source
[13] = molecular target: T4, SARS-CoV-2 Delta Spike on virus …; remark: listed apart in the source
[14] = molecular target: T1, SARS-CoV-2 Omicron BA.1 Spike on virus …; remark: listed apart in the source
[15] = molecular target: T2, SARS-CoV-2 Omicron BA.2 Spike on …; remark: listed apart in the source
[16] = molecular target: T3, SARS-CoV-2 Omicron BA.2.12.1 Spike on …; remark: listed apart in the source
[17] = molecular target: T4, SARS-CoV-2 Delta Spike on virus …; remark: listed apart in the source
[18] = molecular target: T5, SARS-CoV-2 Omicron BA.4/5 Spike on …; remark: listed apart in the source
[19] = molecular target: T3, SARS-CoV-2 Omicron BA.2.12.1 Spike on …; remark: listed apart in the source

Row | Binder | IC50, pseudovirus neutralization [1] | IC50, pseudovirus neutralization [2] | IC50, pseudovirus neutralization [3] | IC50, pseudovirus neutralization [4] | IC50, pseudovirus neutralization [5] | EC50, pseudovirus neutralization on TMPRSS2-Vero E6 cells [6] | IC50, pseudovirus neutralization [7] | IC50, pseudovirus neutralization [8] | IC50, pseudovirus neutralization [9] | Neutralization - IC50, pseudovirus [10] | Neutralization - IC50, pseudovirus [11] | IC50, live virus neutralization [12] | IC50, live virus neutralization [13] | % neutralization at 4.5 µg/ml, pseudovirus [14] | % neutralization at 4.5 µg/ml, pseudovirus [15] | % neutralization at 4.5 µg/ml, pseudovirus [16] | % neutralization at 4.5 µg/ml, pseudovirus [17] | % neutralization at 4.5 µg/ml, pseudovirus [18] | IC50, pseudovirus neutralization [19]
1 | AB-1 (antibody, V domains shown) VH: EVQLVESGAEVKKPGESLKISCKGSGYTFTRYWIGWVRQMPGKGLEWMGIIYPGDSDVRYSPSFQGHVTISADKSISTAYLQWNSLKASDTAMYYCARLPQYCSKGVCYRWFDPWGQGTLVTVSS VL: EIVLTQSPSSVSASVGDRVTITCRASQGISSWLAWYQQKPGKAPKLLIYAASSLQSGVPSRFSGSGSGTDFTLTISSLQPEDFATYYCQQGHSFPYTFGQGTNLEIK | 0.0088 µg/mL | 0.0219 µg/mL | 0.0133 µg/mL | 0.0139 µg/mL | 0.0278 µg/mL | 0.013 µg/mL | 0.031 µg/mL | 0.034 µg/mL | 0.075 µg/mL | 0.0094 µg/mL | 0.0101 µg/mL | 0.119 µg/mL | 0.236 µg/mL | 96.5% | 89.9% | 89.2% | 99.5% | 90.4% | –
2 | Reference Antibody (antibody, V domains shown) VH: EVQLVESGAEVKKPGESLKISCKGSGYTFTRYWIGWVRQMPGKGLEWMGIIYPGDSDTRYSPSFQGHVTISADKSISTAYLQWNSLKASDTAMYYCARLPQYCSNGVCQRWFDPWGQGTLVTVSS VL: EIVLTQSPSSVSASVGDRVTITCRASQGISSWLAWYQQKPGKAPKLLIYAASSLQSGVPSRFSGSGSGTDFTLTISSLQPEDFATYYCQQGNSFPYTFGQGTNLEIK | 0.0261 µg/mL | 0.0941 µg/mL | 0.0307 µg/mL | 0.0681 µg/mL | 0.0314 µg/mL | – | 1.25 µg/mL | 0.256 µg/mL | 0.634 µg/mL | – | – | 0.528 µg/mL | 7.45 µg/mL | 91.9% | 74.5% | – | 93.9% | 74.4% | 0.337 µg/mL

From patent US20230357367A1 (GENERATE BIOMEDICINES, published 2023)
